Test results as given in patent US20240239872A1 (SHANDONG AGRICULTURAL UNIVERSITY, published 2024).

What was measured:
[1] = target: T1, PVY in juice of infected plants (coat protein on virus) (Potato virus Y); assay: indirect ELISA (antigen not stated)
[2] = target: T1, PVY in juice of infected plants (coat …); assay: dot-ELISA on diluted juice of PVY-infected plants

Row | Binder | Titer [1] | dilution of PVY-infected juice still detected [2]
1 | monoclonal antibody N1 (antibody, V domains shown, also called MAb N1) VH: EVQLVESGGGLVQPGGSLKLSCAASGFTFSSYGMSWVRQSPDKRLEWVATINNNGGSTYYPDSVKGRFTISRDNAKNTLYLQMSSLKSEDTAVYYCARDAAFDCWGQGTTLTVSS VL: DIVMSQSPSSLAVSAGEKVTMSCKSSQSLLNSRTRKNYLAWYQQKPGQSPKLLIYWASTRESGVPDRFTGSGSGTDFTLTISSVQAEDLAVYYCKQSYNLFTFGSGTKLEIK | 243000 reciprocal dilution | 10200 times (fold dilution)
2 | monoclonal antibody M1 (antibody, V domains shown, also called MAb M1) VH: QVQLQQSGPELVRPGASVKMSCKTSGYPFSTYWMHWVKQRPGQGLEWIGMIKPSNSETSLNQKFKDKATLNVDKSSNTAYMQLNSLTSEDSGVYYCARAGDSWGQGTTLTVSS VL: not shown | 243000 reciprocal dilution | 5120 times (fold dilution)
3 | monoclonal antibody M2 (antibody, V domains shown, also called MAb M2) VH: EVQLVESGGGLVQPKGSLKLSCAASDFTFNTHSMNWVRQAPGKVLEWIARIRSQSNNYATYYADSVKDRFTISRDDSQNMFYLQMNNLKTEDTAMYYCAGDYYGPFAYWGQGTLVAVSA VL: DVLMTQTPLSLPVSLGDQASISCRSGQSLVHSNGNTYLHWYLQKPGQSPKLLIYKVSNRFSGVPDRFSGSGSGTDFTLKISRVEAEDLGVYFCSQSTHVPWTFGGGTKLEIK | 243000 reciprocal dilution | 640 times (fold dilution)
4 | monoclonal antibody M3 (antibody, V domains shown, also called MAb M3) VH: EVILVESGGGLVKPGGSLRLSCAASGFTFSSHPLSWVRQSPDKRLEWVASISSGGRYTYYPDSVKGRLTISRDNAKNILYLHMNSLRSEDTAMYYCARRGSTATAWFAYWGQGTLVTVSA VL: DIALTQSPASLAVSLGQRATISCKASQSVDYDGDSYMSWYQQKPGQPPKLLIYGASNLESGIPARFSGSGSGTDFTLNIHPVEEEDAATYYCQQSNEDLPTFGGGTKLEIK | 243000 reciprocal dilution | 5120 times (fold dilution)
5 | monoclonal antibody C1 (antibody, V domains shown, also called MAb C1) VH: EVQLQQSGAELVRPGALVKLSCKASGFNIKDYYMHWVKQRPEEGLEWIGWIDPENGNTIYDPKFQGKASITADTSSNTVRLQLSSLTSEDTAVYYCARERGAYWGQGTLVTVSA VL: QIVLTQSPAIMSASPGEKVTMTCSASSSVSYMYWFQQKPGSSPRLLIYDTSNLASGVPVRFSGSGSGTSYSLTISRMEAEDAATFYCQQWSSYPLTFGAGTKLELK | 243000 reciprocal dilution | 5120 times (fold dilution)
